Here are results for nine molecules from US20240084039A1.

Numbering of substitutions follows the chain as printed.

The target of assay [1] is pre-existing anti-drug antibodies (ADA) present in human sera. Nature of the assay: ELISA pre-existing ADA binding assay, confirmatory setup, test molecule coated, 20 human sera.
The target is the same in assay [2]. As to the kind of experiment: ELISA pre-existing ADA binding assay, confirmatory setup, test molecule coated, 40 human sera. On the technique in general: An ELISA detects its analyte on a solid surface through an enzyme-linked reagent.

B1: PRO2669 (protein)
chain 1: DVQMTQSPSSLSASVGDRVTITCRASENIYSGLAWYQQKPGKPPKLLIYRASTLASGVSSRFSGSGSGTDFTLTISSLQPEDFATYYCQGGYYSSSSTYIAFGTGTKVTVLGGGGGSGGGGSGGGGSGGGGSQSQVVESGGGRVQPGGSLRLSCAVSGFDLSSYAVSWVRQAPGKGLEWIGIIYPRANTYYASWAKGRFTISKDNSKNTVYLQMNSLRAEDTATYFCARDRYDSGAYLYTTYFNLWGQGTQVTVSSGGGGSGGGGSAFELTQSPSSLSASVGDRVTITCQASESINSRLAWYQQKPGQPPKLLIYDASDLTSGVPSRFSGSGSGTDFTLTISSLQPEDFATYYCQGYGGSSTTTFGCGTKLTVLGGGSGGSDIQMTQSPSSLSASVGDRVTITCQSSQSVFSNNYLAWFQQKPGQSPKRLIYSASTLASGVPSRFSGSGSGTDFTLTISSLQPEDFATYYCLGSYACSSADCYVFGTGTKVTVLG
chain 2: DVQMTQSPSSLSASVGDRVTITCRASENIYSGLAWYQQKPGKPPKLLIYRASTLASGVSSRFSGSGSGTDFTLTISSLQPEDFATYYCQGGYYSSSSTYIAFGTGTKVTVLGGGGGSGGGGSGGGGSGGGGSQSQVVESGGGRVQPGGSLRLSCAVSGFDLSSYAVSWVRQAPGKGLEWIGIIYPRANTYYASWAKGRFTISKDNSKNTVYLQMNSLRAEDTATYFCARDRYDSGAYLYTTYFNLWGQGTQVTVSSGGGGSGGGGSEVQLVESGGGRVQPGGSLRLSCAASGFSLSSYDMSWVRQAPGKGLAWIGASYASGPTYYASWAKGRFTISRDNSKNTVYLQMNSLRAEDTATYFCARGGWTGTSHSNIWGQGTQVTVSSGGGSGGGSGGGSGEVQLVESGGGRVQPGGSLRLSCAASGFSLSSYAMNWVRQAPGKCLEWIGHINAGDIAYYATWAKGRFTISRDNSKNTVYLQMNSLRAEDTATYFCARGAGGFSTGPFKLWGQGTQVTVSS
In assay [1], B1 gave a % positives of total tested serum samples of 5% and a No of positive serum samples above 30% CCP (serum samples) of 1.

B2: PRO2660 (protein)
chain 1: DIQMTQSPSSLSASVGDRVTITCQASESIYSSLAWYQQKPGKAPKLLIYLASTLASGVPSRFSGSGSGTDFTLTISSLQPEDFATYYCQSTDYTTSTHRNSFGTGTKVTVLGGGGGSGGGGSGGGGSGGGGSEVQLVESGGGLVQPGGSLRLSCAASGFSFSTTYYMCWVRQAPGKGLEWIGCTNTASSVRTYYATWAKGRFTISRDNSKNTVYLQMNSLRAEDTAVYYCARDMGFADYALNLWGQGTLVTVSSGGGGSGGGGSEVQLVESGGGLVQPGGSLRLSCAASGFSLSSYDMSWVRQAPGKGLAWIGASYASGPTYYASWAKGRFTISRDNSKNTVYLQMNSLRAEDTATYFCARGGWTGTSHSNIWGQGTLVTVSSGGGSGGGSGGGSGEVQLVESGGGLVQPGGSLRLSCAASGFSLSSYAMNWVRQAPGKCLEWIGHINAGDIAYYATWAKGRFTISRDNSKNTVYLQMNSLRAEDTAVYFCARGAGGFSTGPFKLWGQGTLVTVSS
chain 2: DIQMTQSPSSLSASVGDRVTITCQASESIYSSLAWYQQKPGKAPKLLIYLASTLASGVPSRFSGSGSGTDFTLTISSLQPEDFATYYCQSTDYTTSTHRNSFGTGTKVTVLGGGGGSGGGGSGGGGSGGGGSEVQLVESGGGLVQPGGSLRLSCAASGFSFSTTYYMCWVRQAPGKGLEWIGCTNTASSVRTYYATWAKGRFTISRDNSKNTVYLQMNSLRAEDTAVYYCARDMGFADYALNLWGQGTLVTVSSGGGGSGGGGSAFELTQSPSSLSASVGDRVTITCQASESINSRLAWYQQKPGQPPKLLIYDASDLTSGVPSRFSGSGSGTDFTLTISSLQPEDFATYYCQGYGGSSTTTFGCGTKLTVLGGGSGGSDIQMTQSPSSLSASVGDRVTITCQSSQSVFSNNYLAWFQQKPGQSPKRLIYSASTLASGVPSRFSGSGSGTDFTLTISSLQPEDFATYYCLGSYACSSADCYVFGTGTKVTVLG
In assay [1], B2 yielded a % positives of total tested serum samples of 30% and a No of positive serum samples above 30% CCP (serum samples) of 6.

B3: PRO2668 (protein)
chain: AFELTQSPSSLSASVGDRVTITCQASESINSRLAWYQQKPGQPPKLLIYDASDLTSGVPSRFSGSGSGTDFTLTISSLQPEDFATYYCQGYGGSSTTTFGCGTKLTVLGGGGGSEVQLVESGGGRVQPGGSLRLSCAASGFSLSSYDMSWVRQAPGKGLAWIGASYASGPTYYASWAKGRFTISRDNSKNTVYLQMNSLRAEDTATYFCARGGWTGTSHSNIWGQGTQVTVSSGGGGSGGGGSGGGGSGGGGSDIQMTQSPSSLSASVGDRVTITCQSSQSVFSNNYLAWFQQKPGQSPKRLIYSASTLASGVPSRFSGSGSGTDFTLTISSLQPEDFATYYCLGSYACSSADCYVFGTGTKVTVLGGGGGSEVQLVESGGGRVQPGGSLRLSCAASGFSLSSYAMNWVRQAPGKCLEWIGHINAGDIAYYATWAKGRFTISRDNSKNTVYLQMNSLRAEDTATYFCARGAGGFSTGPFKLWGQGTQVTVSSGGGGSGGGGSAQQLTQSPSSLSASVGDRVTITCQASQNVWNNNYLSWFQQKPGKPPKLLIVTASTLASGVSSRFSGSGSGTDFTLTISSLQPEDFATYYCAGGFSGEIRAFGCGTKVTVLGGGGGSGGGGSGGGGSGGGGSQSQLVESGGGRVQPGGSLRLSCAVSGLSLSRNAMSWVRQAPGKCLEWIGIILTSGSTYYASWAKGRFTISKDNSKNTVYLQMNSLRAEDTATYFCVRGIASSSLKSFWGQGTQVTVSS
In assay [1], B3 yielded a % positives of total tested serum samples of 0% and a No of positive serum samples above 30% CCP (serum samples) of 0.

B4: PRO2510 (protein)
chain: B3 chain with R125L, Q228L, R383L, T464V, Q487L, R644L, T725V, Q746L
Turning to B4, in assay [1], the % positives of total tested serum samples amounted to 15% and the No of positive serum samples above 30% CCP (serum samples) was found to be 3.

B5: NM21-1480 (PRO1480) (protein)
chain: DIQMTQSPASLSASVGDRVTITCQASQSIGTYLAWYQQKPGKPPKLLIYRAFILASGVPSRFSGSGSGTDFTLTISSLQPEDFATYYCQSNFYSDSTTIGPNAFGTGTKVTVLGGGGGSEVQLVESGGGLVQPGGSLRLSCAASGFSFSANYYPCWVRQAPGKGLEWIGCIYGGSSDITYDANWTKGRFTISRDNSKNTVYLQMNSLRAEDTAVYYCARSAWYSGWGGDLWGQGTLVTVSSGGGGSGGGGSGGGGSGGGGSIQMTQSPSSLSASVGDRVTITCQASQSISNRLAWYQQKPGKAPKLLIYSASTLASGVPSRFSGSGSGTDFTLTISSLQPEDFATYYCQSTYYGNDGNAFGTGTKVTVLGGGGGSEVQLVESGGGLVQPGGSLRLSCAASGFSFNSDYWIYWVRQAPGKGLEWIASIYGGSSGNTQYASWAQGRFTISRDNSKNTVYLQMNSLRAEDTAVYFCARGYVDYGGATDLWGQGTLVTVSSGGGGSGGGGSIQMTQSPSSLSASVGDRVTITCQSSESVYSNNQLSWYQQKPGQPPKLLIYDASDLASGVPSRFSGSGSGTDFTLTISSLQPEDFATYYCAGGFSSSSDTAFGGGTKLTVLGGGGGSGGGGSGGGGSGGGGSEVQLVESGGGLVQPGGSLRLSCAASGFSLSSNAMGWVRQAPGKGLEYIGIISVGGFTYYASWAKGRFTISRDNSKNTVYLQMNSLRAEDTATYFCARDRHGGDSSGAFYLWGQGTLVTVSS
In assay [2], B5 gave a % positives of total tested serum samples of 22.5% and a No of positive serum samples above 31.56% CCP (serum samples) of 9.

B6: PRO2759 (protein)
chain: B5 chain with N183Q, L386R, V470T, L492Q
In assay [2], B6 displayed a % positives of total tested serum samples of 15% and a No of positive serum samples above 31.56% CCP (serum samples) of 6.

B7: PRO2761 (protein)
chain: B5 chain with N183Q, L649R, L754Q
Take B7: in assay [2], the % positives of total tested serum samples turned out to be 7.5% and the No of positive serum samples above 31.56% CCP (serum samples) was determined as 3.

B8: PRO2760 (protein)
chain: B5 chain with L130R, N183Q, V214T, L236Q
As to B8, in assay [2], the % positives of total tested serum samples was found to be 25% and the No of positive serum samples above 31.56% CCP (serum samples) came to 10.

B9: PRO2758 (protein)
chain: B5 chain with L130R, N183Q, V214T, L236Q, L386R, V470T, L492Q, L649R, L754Q
In assay [2], B9 yielded a % positives of total tested serum samples of 5% and a No of positive serum samples above 31.56% CCP (serum samples) of 2.
